From PMC3795721, “Screening for Protein-DNA Interactions by Automatable DNA-Protein Interaction ELISA” come the findings set out here.

T1: AtbZIP63 (Arabidopsis thaliana, UniProt B9DGI8 1-314)
T1 sequence: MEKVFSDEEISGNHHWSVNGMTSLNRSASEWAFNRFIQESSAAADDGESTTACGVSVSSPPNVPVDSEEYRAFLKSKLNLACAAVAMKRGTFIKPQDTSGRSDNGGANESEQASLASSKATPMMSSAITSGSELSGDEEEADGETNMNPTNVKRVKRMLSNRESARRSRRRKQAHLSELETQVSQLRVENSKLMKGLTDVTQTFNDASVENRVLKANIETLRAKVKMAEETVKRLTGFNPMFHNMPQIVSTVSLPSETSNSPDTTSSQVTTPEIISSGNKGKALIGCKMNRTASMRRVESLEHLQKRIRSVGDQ

B1: 259 (dsDNA)
DNA 1: AAAAAAGTAGGTGCTGATGCTGGCCGAAAA
DNA 2: TTTTCGGCCAGCATCAGCACCTACTTTTTT
B2: 153 (dsDNA)
DNA 1: AAAAAATGTATTCGTGTCCACTCCATAAAA
DNA 2: TTTTATGGAGTGGACACGAATACATTTTTT
B3: 109 (dsDNA)
DNA 1: AAAAAATACGTCTACGTGGTTGTCGTAAAA
DNA 2: TTTTACGACAACCACGTAGACGTATTTTTT
B4: 276 (dsDNA)
DNA 1: AAAAAACATCGCTGTCGTTGACGTTGAAAA
DNA 2: TTTTCAACGTCAACGACAGCGATGTTTTTT
B5: 124 (dsDNA)
DNA 1: AAAAAAACTCACGGCGTCACTATGGTAAAA
DNA 2: TTTTACCATAGTGACGCCGTGAGTTTTTTT
B6: 313 (dsDNA)
DNA 1: AAAAAATCGCGAACGTACGTCCGCGGAAAA
DNA 2: TTTTCCGCGGACGTACGTTCGCGATTTTTT
B7: 270 (dsDNA)
DNA 1: AAAAAACATGTCGCACCTGTACTAACAAAA
DNA 2: TTTTGTTAGTACAGGTGCGACATGTTTTTT
B8: 287 (dsDNA)
DNA 1: AAAAAACACGCCATTGACACTGGTAAAAAA
DNA 2: TTTTTTACCAGTGTCAATGGCGTGTTTTTT
B9: 44 (dsDNA)
DNA 1: AAAAAAGTACATGCGTAGATAATGTTAAAA
DNA 2: TTTTAACATTATCTACGCATGTACTTTTTT
B10: 223 (dsDNA)
DNA 1: AAAAAAGGCCACGGTAACCCCTTTTGAAAA
DNA 2: TTTTCAAAAGGGGTTACCGTGGCCTTTTTT
B11: 110 (dsDNA)
DNA 1: AAAAAAGCGTAAGCCTTGACAGTCGTAAAA
DNA 2: TTTTACGACTGTCAAGGCTTACGCTTTTTT
B12: 294 (dsDNA)
DNA 1: AAAAAACGTGCGCGTGCATGTCATCGAAAA
DNA 2: TTTTCGATGACATGCACGCGCACGTTTTTT
B13: 108 (dsDNA)
DNA 1: AAAAAAGGCGTCTGACTGTAACTCGTAAAA
DNA 2: TTTTACGAGTTACAGTCAGACGCCTTTTTT
B14: 64 (dsDNA)
DNA 1: AAAAAATCGGGCCCCGTTAGCACTCTAAAA
DNA 2: TTTTAGAGTGCTAACGGGGCCCGATTTTTT
B15: 31 (dsDNA)
DNA 1: AAAAAATCCACGACTCAGCAGCTCTTAAAA
DNA 2: TTTTAAGAGCTGCTGAGTCGTGGATTTTTT
B16: 137 (dsDNA)
DNA 1: AAAAAAACTCTAGGTCAATATTATTCAAAA
DNA 2: TTTTGAATAATATTGACCTAGAGTTTTTTT
B17: 57 (dsDNA)
DNA 1: AAAAAAAATTAGTCTCTTCGTCTCCCAAAA
DNA 2: TTTTGGGAGACGAAGAGACTAATTTTTTTT
B18: 260 (dsDNA)
DNA 1: AAAAAAGTATAACGTGTTGTTGACCGAAAA
DNA 2: TTTTCGGTCAACAACACGTTATACTTTTTT
B19: 101 (dsDNA)
DNA 1: AAAAAAGTCTAAGGACTTATAGCTGTAAAA
DNA 2: TTTTACAGCTATAAGTCCTTAGACTTTTTT
B20: 43 (dsDNA)
DNA 1: AAAAAAAGGTCATTGCTGCTGGTGTTAAAA
DNA 2: TTTTAACACCAGCAGCAATGACCTTTTTTT
B21: 97 (dsDNA)
DNA 1: AAAAAAAGTTTGACCTTGGCGTTCGTAAAA
DNA 2: TTTTACGAACGCCAAGGTCAAACTTTTTTT
B22: 36 (dsDNA)
DNA 1: AAAAAATTTGGTCTTCGTCCTCGCTTAAAA
DNA 2: TTTTAAGCGAGGACGAAGACCAAATTTTTT
B23: 271 (dsDNA)
DNA 1: AAAAAACGTTGAACCTGGGCCTCAACAAAA
DNA 2: TTTTGTTGAGGCCCAGGTTCAACGTTTTTT
B24: 88 (dsDNA)
DNA 1: AAAAAATCAACCATTATGGTATTACTAAAA
DNA 2: TTTTAGTAATACCATAATGGTTGATTTTTT
B25: 83 (dsDNA)
DNA 1: AAAAAATATGTAGCTGCCGTTACGCTAAAA
DNA 2: TTTTAGCGTAACGGCAGCTACATATTTTTT
B26: 195 (dsDNA)
DNA 1: AAAAAATGGTCGTCGTACTCGTGGTCAAAA
DNA 2: TTTTGACCACGAGTACGACGACCATTTTTT
B27: 173 (dsDNA)
DNA 1: AAAAAATACATTTGACTTTGGGTTTCAAAA
DNA 2: TTTTGAAACCCAAAGTCAAATGTATTTTTT
B28: 91 (dsDNA)
DNA 1: AAAAAAAGTGGCCGCTAGTCAACTCAAAAA
DNA 2: TTTTTGAGTTGACTAGCGGCCACTTTTTTT
B29: 222 (dsDNA)
DNA 1: AAAAAAGGCGGTCGTAGTTGTGGGAGAAAA
DNA 2: TTTTCTCCCACAACTACGACCGCCTTTTTT
B30: 54 (dsDNA)
DNA 1: AAAAAAGTCCGCCCTTAATTCATATTAAAA
DNA 2: TTTTAATATGAATTAAGGGCGGACTTTTTT
B31: 117 (dsDNA)
DNA 1: AAAAAAATCAGCCTGACTCTGGGCGTAAAA
DNA 2: TTTTACGCCCAGAGTCAGGCTGATTTTTTT
B32: 92 (dsDNA)
DNA 1: AAAAAAAGTCTGCGGCTGCAGGGCGGAAAA
DNA 2: TTTTCCGCCCTGCAGCCGCAGACTTTTTTT

The target in the first data set is T1, AtbZIP63. The data set can be described thus: DPI-ELISA; DPI-ELISA, streptavidin 384-well plate, 1-2 pmol biotinylated dsDNA per well, crude native E. coli extract, anti-His detection; buffer as in Brand et al. [46],; high values mean tight binding. The note with it: tags: C-terminal His (pET-DEST42); chain copies: 2; label: 5' biotin on forward strand. A general note: An ELISA detects its analyte on a solid surface through an enzyme-linked reagent.
For B1, the binding signal was 1.92 relative normalized absorbance.

Consider B2, for which the binding signal was 1.89 relative normalized absorbance.

Consider B3, for which the binding signal was 2.98 relative normalized absorbance.

Turning to B4, the binding signal is 2.02 relative normalized absorbance.

For the molecule B5, the binding signal is 2.46 relative normalized absorbance.

Regarding B6, the binding signal is 2.62 relative normalized absorbance.

Consider B7, for which the binding signal was 1.93 relative normalized absorbance.

For B8, the binding signal is 1.99 relative normalized absorbance.

B9: the binding signal was 2.11 relative normalized absorbance.

B10: the binding signal was 2.06 relative normalized absorbance.

As to B11, the binding signal is 1.94 relative normalized absorbance.

Regarding B12, the binding signal was 1.97 relative normalized absorbance.

Consider B13, for which the binding signal is 2.54 relative normalized absorbance.

Consider B14, for which the binding signal is 2.04 relative normalized absorbance.

Consider B15, for which the binding signal is 2.32 relative normalized absorbance.

In a further data set the target is WRKY33 cDBD (Arabidopsis thaliana, UniProt Q8S8P5 345-449). The description is as above. The settings on record: tags: C-terminal His (pET-DEST42); label: 5' biotin on forward strand.
Sequence of WRKY33 cDBD (Q8S8P5 other isoform, or with tags, fused parts or gaps): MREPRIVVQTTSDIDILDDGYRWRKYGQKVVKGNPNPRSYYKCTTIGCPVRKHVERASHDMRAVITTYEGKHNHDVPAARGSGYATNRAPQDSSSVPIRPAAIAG
Regarding B16, the binding signal was 2.3 relative normalized absorbance.

As to B17, the binding signal is 2.01 relative normalized absorbance.

For B18, the binding signal is 2.33 relative normalized absorbance.

For the molecule B19, the binding signal is 2.37 relative normalized absorbance.

For the molecule B20, the binding signal was 2.19 relative normalized absorbance.

Consider B4, for which the binding signal was 2.34 relative normalized absorbance.

On to B21, for which the binding signal is 2.28 relative normalized absorbance.

On to B22, for which the binding signal is 2.17 relative normalized absorbance.

For the molecule B23, the binding signal was 2.33 relative normalized absorbance.

With B24, the binding signal is 2.02 relative normalized absorbance.

In the case of B25, the binding signal is 2.34 relative normalized absorbance.

As for B26, the binding signal was 2.34 relative normalized absorbance.

Regarding B27, the binding signal is 2.31 relative normalized absorbance.

For B28, the binding signal is 2.25 relative normalized absorbance.

With B29, the binding signal was 2.35 relative normalized absorbance.

As for B30, the binding signal is 2.35 relative normalized absorbance.

As to B13, the binding signal was 2.35 relative normalized absorbance.

Turning to B31, the binding signal is 2.01 relative normalized absorbance.

For B32, the binding signal is 2.36 relative normalized absorbance.
